# Measured values: the Immune Epitope Database (IEDB)
# Key:
# [1] = molecular target: HLA-A*25:01; experiment: IEDB peptide-MHC binding, purified MHC/competitive/fluorescence; ≥ and ≤ were set here for values at or beyond the usual limits of such assays
# [2] = molecular target: HLA-B*58:01; experiment: as above
# [3] = molecular target: HLA-A*31:01; experiment: as above
# [4] = molecular target: HLA-B*51:01; experiment: as above
# [5] = molecular target: HLA-A*02:01; experiment: as above
# [6] = molecular target: HLA-A*68:02; experiment: as above
# [7] = molecular target: HLA-B*35:01; experiment: as above
# [8] = molecular target: HLA-A*03:01; experiment: as above
# [9] = molecular target: HLA-A*29:02; experiment: as above
# [10] = molecular target: HLA-B*14:02; experiment: as above
# [11] = molecular target: HLA-B*53:01; experiment: as above
# [12] = molecular target: HLA-B*44:03; experiment: as above
# [13] = molecular target: HLA-A*24:02; experiment: as above
# [14] = molecular target: HLA-B*08:01; experiment: as above
# [15] = molecular target: HLA-B*40:02; experiment: as above
# [16] = molecular target: HLA-A*01:01; experiment: as above
# [17] = molecular target: HLA-A*11:01; experiment: as above
# [18] = molecular target: HLA-B*18:01; experiment: as above
# [19] = molecular target: HLA-B*37:01; experiment: as above
# [20] = molecular target: HLA-B*07:02; experiment: as above
# [21] = molecular target: HLA-C*07:02; experiment: IEDB peptide-MHC binding, purified MHC/direct/fluorescence; filed as Kd, often an IC50 or EC50 that approximates it; ≥ and ≤ were set here for values at or beyond the usual limits of such assays; settings: source organism: SARS-CoV1
# [22] = molecular target: HLA-A*24:02; experiment: IEDB peptide-MHC binding, purified MHC/competitive/fluorescence; filed as Kd, often an IC50 or EC50 that approximates it; ≥ and ≤ were set here for values at or beyond the usual limits of such assays
# [23] = molecular target: HLA-A*30:02; experiment: IEDB peptide-MHC binding, purified MHC/competitive/radioactivity; filed as Kd, often an IC50 or EC50 that approximates it; ≥ and ≤ were set here for values at or beyond the usual limits of such assays; settings: source organism: SARS coronavirus Tor2
# [24] = molecular target: HLA-A*26:01; experiment: as above; settings: source organism: SARS coronavirus Tor2
# [25] = molecular target: HLA-A*29:02; experiment: as above; settings: source organism: SARS coronavirus Tor2
# [26] = molecular target: HLA-A*23:01; experiment: as above; settings: source organism: SARS coronavirus Tor2
# [27] = molecular target: HLA-A*01:01; experiment: as above; settings: source organism: SARS coronavirus Tor2
# [28] = molecular target: HLA-A*02:16; experiment: IEDB peptide-MHC binding, purified MHC/competitive/fluorescence; filed as Kd, often an IC50 or EC50 that approximates it; ≥ and ≤ were set here for values at or beyond the usual limits of such assays; settings: source organism: Pseudomonas sp. MIS38
# [29] = molecular target: HLA-A*02:50; experiment: as above; settings: source organism: Pseudomonas sp. MIS38
# [30] = molecular target: HLA-A*02:06; experiment: as above; settings: source organism: Pseudomonas sp. MIS38
# [31] = molecular target: HLA-A*02:03; experiment: as above; settings: source organism: Pseudomonas sp. MIS38
# [32] = molecular target: HLA-B*58:01; experiment: as above; settings: source organism: Pseudomonas sp. MIS38
# [33] = molecular target: HLA-A*02:01; experiment: as above; settings: source organism: Pseudomonas sp. MIS38
# [34] = molecular target: HLA-B*15:01; experiment: as above; settings: source organism: Pseudomonas sp. MIS38
# [35] = molecular target: HLA-A*69:01; experiment: as above; settings: source organism: Pseudomonas sp. MIS38
# [36] = molecular target: HLA-B*40:01; experiment: as above; settings: source organism: Pseudomonas sp. MIS38
# [37] = molecular target: HLA-A*30:01; experiment: as above; settings: source organism: Pseudomonas sp. MIS38
# [38] = molecular target: HLA-A*03:01; experiment: as above; settings: source organism: Pseudomonas sp. MIS38
# [39] = molecular target: HLA-A*02:11; experiment: as above; settings: source organism: Pseudomonas sp. MIS38
# [40] = molecular target: HLA-B*27:05; experiment: as above; settings: source organism: Pseudomonas sp. MIS38
# [41] = molecular target: HLA-A*01:01; experiment: as above; settings: source organism: Pseudomonas sp. MIS38
# [42] = molecular target: HLA-A*11:01; experiment: as above; settings: source organism: Pseudomonas sp. MIS38
# [43] = molecular target: HLA-A*02:19; experiment: as above; settings: source organism: Pseudomonas sp. MIS38
# [44] = molecular target: HLA-A*02:12; experiment: as above; settings: source organism: Pseudomonas sp. MIS38
# [45] = molecular target: HLA-B*07:02; experiment: as above; settings: source organism: Pseudomonas sp. MIS38
# [46] = source organism: Monodelphis domestica
# [47] = source organism: Gorilla gorilla gorilla
sequence,measurement,setting,value
YSLEYFQFVKK,IC50,[1]; [46],≥ 20 µM
same,IC50,[2]; [46],≥ 20 µM
same,IC50,[3]; [46],≥ 20 µM
same,IC50,[4]; [46],≥ 20 µM
same,IC50,[5]; [46],≥ 20 µM
same,IC50,[6]; [46],≥ 20 µM
same,IC50,[7]; [46],≥ 20 µM
same,IC50,[8]; [46],≥ 20 µM
same,IC50,[9]; [46],≥ 20 µM
same,IC50,[10]; [46],≥ 20 µM
same,IC50,[11]; [46],≥ 20 µM
same,IC50,[12]; [46],≥ 20 µM
same,IC50,[13]; [46],≥ 20 µM
same,IC50,[14]; [46],≥ 20 µM
same,IC50,[15]; [46],≥ 20 µM
same,IC50,[16]; [46],≥ 20 µM
same,IC50,[17]; [46],2.9 µM
same,IC50,[18]; [46],≥ 20 µM
same,IC50,[19]; [46],≥ 20 µM
same,IC50,[20]; [46],≥ 20 µM
NYMPYVFTL,Kd,[21],≤ 0.001 µM
same,Kd,[22]; source organism: SARS-CoV1,≤ 0.0001 µM
same,Kd,[23],18.2 µM
same,Kd,[24],≥ 51.8 µM
same,Kd,[25],0.369 µM
same,Kd,[26],0.00637 µM
same,Kd,[27],≥ 78.1 µM
RYSHWTKL,IC50,[1]; [47],≥ 20 µM
same,IC50,[2]; [47],≥ 20 µM
same,IC50,[3]; [47],≥ 20 µM
same,IC50,[4]; [47],≥ 20 µM
same,IC50,[5]; [47],≥ 20 µM
same,IC50,[6]; [47],≥ 20 µM
same,IC50,[7]; [47],≥ 20 µM
same,IC50,[8]; [47],≥ 20 µM
same,IC50,[9]; [47],≥ 20 µM
same,IC50,[10]; [47],≥ 20 µM
same,IC50,[11]; [47],≥ 20 µM
same,IC50,[12]; [47],≥ 20 µM
same,IC50,[13]; [47],0.161 µM
same,IC50,[14]; [47],≥ 20 µM
same,IC50,[15]; [47],≥ 20 µM
same,IC50,[16]; [47],≥ 20 µM
same,IC50,[17]; [47],≥ 20 µM
same,IC50,[18]; [47],≥ 20 µM
same,IC50,[19]; [47],≥ 20 µM
same,IC50,[20]; [47],17.3 µM
YMLKDSAPT,Kd,[28],0.0005 µM
same,Kd,[29],0.03 µM
same,Kd,[30],0.0023 µM
same,Kd,[31],0.0042 µM
same,Kd,[32],≥ 20 µM
same,Kd,[33],0.0602 µM
same,Kd,[34],3.35 µM
same,Kd,[35],2 µM
same,Kd,[36],≥ 20 µM
same,Kd,[37],≥ 20 µM
same,Kd,[38],≥ 20 µM
same,Kd,[39],0.0094 µM
same,Kd,[22]; source organism: Pseudomonas sp. MIS38,≥ 20 µM
same,Kd,[40],≥ 20 µM
same,Kd,[41],≥ 20 µM
same,Kd,[42],≥ 20 µM
same,Kd,[43],0.0114 µM
same,Kd,[44],0.0019 µM
same,Kd,[45],≥ 20 µM
